Data taken from paper PMC3266953 (Scientific Reports, 2012).

Molecular target: the molecule itself
Experiment: crystal structure

B1: NcdG347D, truncated dimeric protein (MGSM-H293-K700) (domain or fragment)
chain: MGSMHAALSTEVVHLRQRTEELLRCNEQQAAELETCKEQLFQSNMERKELHNTVMDLRDNIRVFCRIRPPLESEENRMCCTWTYHDESTVELQSIDAQAKSKMGQQIFSFDQVFHPLSSQSDIFEMVSPLIQSALDGYNICIFAYGQTGSGKTYTMDGVPESVGVIPRTVDLLFDSIRGYRNLGWEYEIKATFLEIYNEVLYDLLSNEQKDMEIRMAKNNKNDIYVSNITEETVLDPNHLRHLMHTAKMNRATASTAGNERSSRSHAVTKLELIGRHAEKQEISVGSINLVDLAGSESPKTSTRMTETKNINRSLSELTNVILALLQKQDHIPYRNSKLTHLLMPSLGGNSKTLMFINVSPFQDCFQESVKSLRFAASVNSCKMTKAKRNRYLNNSVANSSTQSNNSGSFDK
B1 was tested, and the “stoichiometry N” value was 2.
